From US20110039770A1, “INHIBITORS OF PROTEIN KINASE C ISOFORMS AND USES THEREOF” (PHARMAGAP INC., priority 2005, published 2011)
Where a SMILES comes first, the peptide text is derived from it. [ ]: non-standard residue; d: D form.

Columns and labels:
PKC-ζ = molecular target: T1, PKC-ζ (Homo sapiens, UniProt Q05513); assay: ELISA-based competitive binding assay with purified PKC isoform; parameters: key to Affinity for PKC isoform ζ: —: no detectable affinity; Low to very low affinity at 10X or 20X or both PRE concentrations in at least one cell line in the cell extract assay; Low affinity in purified isoform assay.; Moderate affinity at 10X or 20X or both PRE concentrations in at least one cell line in the cell extract assay.; High affinity at 10X or 20X or both PRE concentrations in at least one cell line in the cell extract assay; High affinity in purified isoform assay; conditions: for Affinity for PKC isoform ζ: Purified isoform
T1 sequence (Q05513 1-592): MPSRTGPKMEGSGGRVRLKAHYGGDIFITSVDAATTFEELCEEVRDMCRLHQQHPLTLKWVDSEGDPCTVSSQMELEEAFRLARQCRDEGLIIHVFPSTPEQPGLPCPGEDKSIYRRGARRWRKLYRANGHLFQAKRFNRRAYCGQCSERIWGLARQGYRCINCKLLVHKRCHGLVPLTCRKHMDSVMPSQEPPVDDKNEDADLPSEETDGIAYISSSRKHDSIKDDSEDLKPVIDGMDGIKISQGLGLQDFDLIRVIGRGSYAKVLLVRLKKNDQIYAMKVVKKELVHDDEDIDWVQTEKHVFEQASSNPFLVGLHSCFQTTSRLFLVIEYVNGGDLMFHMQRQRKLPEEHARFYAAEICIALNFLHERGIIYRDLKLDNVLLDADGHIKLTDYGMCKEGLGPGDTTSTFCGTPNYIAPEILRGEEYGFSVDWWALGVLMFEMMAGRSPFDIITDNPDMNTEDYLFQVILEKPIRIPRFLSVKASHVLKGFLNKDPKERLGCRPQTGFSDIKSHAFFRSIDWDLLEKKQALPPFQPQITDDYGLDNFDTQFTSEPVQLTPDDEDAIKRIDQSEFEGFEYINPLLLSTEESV
Description: (§1) Peptides PRE 1, 2, 3, 4, 5, 6, 7, 8, 9, 10, 11, 12 and 13 (see Table 3) were tested for their ability to interfere with binding of PKC isoform-specific antibodies to their target PKC isoforms using a competitive binding assay and purified PKC isoforms.
(§2) Procedure: Competitive binding was assessed using a 96 well plate ELISA-based assay as described below.
(§3) Greiner 96 well ELISA plates were coated with the appropriate PKC isoform diluted in PBSN (PBS with Calcium/Magnesium+0.05% Sodium azide w/w). 50 μL/well at 250 ng/mL was used. Control wells contained PBSN only. Plates were incubated overnight at 4° C.
(§4) The plates were washed 3 times with 200 μL of dH2O per well, then 100 μL of blocking solution was added per well and the plate incubated for 1 h at 37° C. The washing steps with dH2O were repeated and 50 μL of the appropriate PRE solution (PRE stock solution [20 mM in DMSO] diluted in PBSN) was added and the plate incubated for 1 h at room temperature.
(§5) After incubation, 5 μL of 1.1:400 anti-PKC (isoform specific antibody) was added per well (to provide a final concentration of 1:4000). For PKC-epsilon, 1.1:800 dilution was used and for PKC-zeta a 1.1:100 dilution was used due to high and low binding affinity, respectively. The plates were then incubated 1 h at room temperature, followed by washing with dH2O as described above.
(§6) 50 μL of 1:1000 dilution of Alkaline Phosphatase (AP) conjugated antibody (anti-rabbit for all except zeta, which was anti-goat) was then added and the plate incubated for 1 h at room temperature. Washing with dH2O was then repeated. Finally, 100 μL of pNPP solution in pNPP buffer (2 mM MgCl2, 100 mM Sodium bicarbonate in water, pH 9.8) was added to all wells and incubated for 8 minutes for α, βI, βII ε, and ζ, or for 15-20 mins for δ (until sufficient coloration is observed). The reaction was stopped by addition of Stop solution (2N NaOH) and the absorbance at 405 nm was read on a Galaxy Plate reader.
(§7) Controls were PKC without PRE; blank controls, and controls containing the final concentrations of DMSO used for solubilizing the PREs. The non-specific binding capacity related to DMSO was also measured.
(§8) The antibodies used were as follows: anti-PKC α (Cat. No. SC-208); anti-PKC βI (Cat. No. SC-209); anti-PKC βII (Cat. No. SC-210); anti-PKC δ (Cat. No. SC-213); anti-PKC ε (Cat. No. SC-214); anti-PKC ζ (Cat. No. SC-216-G) (all from Santa Cruz Biotechnology, Inc.). The AP-conjugated antibodies were obtained from Jackson Immuno Research Laboratories (West Grove, Pa.).
(§9) Calculations: The OD values measured at 405 nm represent the free PKC coated per well.
(§10) OD405 PKC alone−Blank OD405 of each sample=OD405 coated isoform
(§11) (OD405 of sample X/OD405 coated isoform)×100=% n that represents the percentage of X binding compared to control.
(§12) 100-% n measures the relative binding capacity of X towards the tested isoform.
(§13) The apparent binding capacity of the DMSO samples was then subtracted from X binding capacity.
(§14) All measurements were made in triplicate and the values in the table represent the averaged calculated binding capacity values after subtraction of the DMSO apparent binding capacity (averaged from 12 values, respectively 10.80, 11.20 and 16.40 corresponding to the concentrations of DMSO used to dilute the […] at 200, 100 and 50 μM respectively). The results allow for quantitative comparison of the binding capacity of each PRE towards an individual isoform within each table, but not among isoforms due to differences in sensitivity of the specific antibodies toward the secondary antibody. This applies particularly to PKC-delta. As noted above, the colour development duration was increased 2-3 times and, as a result, the OD405 measurements may be overestimated for this isoform.

PKC-δ = PKC-δ (Homo sapiens, UniProt Q05655); assay: as above; parameters: key to Affinity for PKC isoform δ: —: no detectable affinity; Low to very low affinity at 10X or 20X or both PRE concentrations in at least one cell line in the cell extract assay; Low affinity in purified isoform assay.; Moderate affinity at 10X or 20X or both PRE concentrations in at least one cell line in the cell extract assay.; High affinity at 10X or 20X or both PRE concentrations in at least one cell line in the cell extract assay; High affinity in purified isoform assay; conditions: for Affinity for PKC isoform δ: Purified isoform
Description: as §1, §2, §3, §4, §5, §6, §7, §8, §9, §10, §11, §12, §13, §14

[1] = PRE 50 μM, purified PKC-ζ, read-out: calculated binding capacity (100-% n, DMSO apparent binding subtracted)
[2] = PRE 100 μM, purified PKC-ζ, read-out: calculated binding capacity (100-% n, DMSO apparent binding subtracted)

PKC-δ, sequence (Q05655 whole entry, canonical isoform): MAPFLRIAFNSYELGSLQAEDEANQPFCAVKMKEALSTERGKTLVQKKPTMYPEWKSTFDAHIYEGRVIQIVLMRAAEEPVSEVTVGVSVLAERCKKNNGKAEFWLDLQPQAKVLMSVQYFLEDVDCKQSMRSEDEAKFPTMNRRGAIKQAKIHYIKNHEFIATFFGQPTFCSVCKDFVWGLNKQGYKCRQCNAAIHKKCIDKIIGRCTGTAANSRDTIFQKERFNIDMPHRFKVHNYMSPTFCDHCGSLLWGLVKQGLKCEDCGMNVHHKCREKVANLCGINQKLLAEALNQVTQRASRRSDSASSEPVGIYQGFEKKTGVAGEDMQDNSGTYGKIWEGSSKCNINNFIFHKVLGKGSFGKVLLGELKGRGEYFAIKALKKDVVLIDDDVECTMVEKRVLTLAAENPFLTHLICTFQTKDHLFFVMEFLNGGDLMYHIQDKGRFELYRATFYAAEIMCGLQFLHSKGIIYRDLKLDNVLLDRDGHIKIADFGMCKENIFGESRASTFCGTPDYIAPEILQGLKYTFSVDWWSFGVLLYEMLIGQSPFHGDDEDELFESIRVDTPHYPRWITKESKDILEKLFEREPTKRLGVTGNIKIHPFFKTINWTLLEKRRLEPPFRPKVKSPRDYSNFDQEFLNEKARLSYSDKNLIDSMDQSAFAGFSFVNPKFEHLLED

| Molecule | Affinity for PKC isoform ζ (PKC-ζ) | Affinity for PKC isoform δ (PKC-δ) | also measured |
| --- | --- | --- | --- |
| CC[C@H](C)[C@H](NC(=O)[C@H](CO)NC(=O)[C@@H](NC(=O)CNC(=O)[C@@H](NC(=O)[C@H](CC(C)C)NC(=O)[C@H](CC(N)=O)NC(=O)[C@H](CCC(N)=O)NC(=O)[C@H](C)NC(=O)[C@H](CC(=O)O)NC(=O)CNC(=O)CNC(=O)[C@H](CCCCN)NC(=O)[C@@H](NC(=O)[C@H](CCC(=O)O)NC(=O)[C@H](CCC(N)=O)NC(=O)[C@@H](NC(=O)CNC(=O)[C@H](CCCCN)NC(=O)[C@H](C)NC(C)=O)[C@@H](C)CC)C(C)C)[C@@H](C)CC)[C@@H](C)CC)C(N)=O [PRE 3] (Ac-AKGIQEVKGGDAQNLIGISI-NH2) | H | H |  |
| CC[C@H](C)[C@H](NC(=O)[C@H](CO)NC(=O)[C@@H](NC(=O)CNC(=O)[C@@H](NC(=O)[C@H](CC(C)C)NC(=O)[C@H](CC(N)=O)NC(=O)[C@H](CCC(N)=O)NC(=O)[C@H](C)NC(=O)[C@H](CC(=O)O)NC(=O)[C@H](CCCCN)NC(C)=O)[C@@H](C)CC)[C@@H](C)CC)C(N)=O [PRE 4, Ac-KDAQNLIGISI-NH2] (Ac-KDAQNLIGISI-NH2) | — | H | inhibition at 50 µM (PKC-ζ; [1]): 0%; inhibition at 100 µM (PKC-ζ; [2]): 0% |
| CC[C@H](C)[C@H](NC(=O)[C@H](CO)NC(=O)[C@@H](NC(=O)CNC(=O)[C@@H](NC(=O)[C@H](CC(C)C)NC(=O)[C@H](CC(N)=O)NC(=O)[C@H](CCC(N)=O)NC(=O)[C@H](C)NC(=O)[C@H](CC(=O)O)NC(=O)[C@H](CCCCN)NC(=O)CNC(=O)CNC(=O)[C@H](CCCCN)NC(=O)[C@@H](NC(=O)[C@H](CCC(=O)O)NC(=O)[C@H](CCC(N)=O)NC(=O)[C@@H](NC(=O)CNC(=O)[C@H](CCCCN)NC(=O)[C@H](C)NC(C)=O)[C@@H](C)CC)C(C)C)[C@@H](C)CC)[C@@H](C)CC)C(N)=O [PRE 5] (Ac-AKGIQEVKGGKDAQNLIGISI-NH2) | — | L | inhibition at 50 µM (PKC-ζ; [1]): 0%; inhibition at 100 µM (PKC-ζ; [2]): 0%; inhibition at 200 µM (PKC-ζ; PRE 200 μM, purified PKC-ζ, read-out: calculated binding capacity (100-% n, DMSO apparent binding subtracted)): 0%; inhibition at 50 µM (PKC-δ; PRE 50 μM, purified PKC-δ (may be overestimated), read-out: calculated binding capacity (100-% n, DMSO apparent binding subtracted)): 0.2%; inhibition at 100 µM (PKC-δ; PRE 100 μM, purified PKC-δ (may be overestimated), read-out: calculated binding capacity (100-% n, DMSO apparent binding subtracted)): 0% |
| Ac-ISIGILNQADK-NH2 [PRE 10] | — | — |  |
| Ac-ISIGILQNADK-NH2 (not fully specified; printed as Ac-ISIGILQNADK-NH2) [PRE 7] | — | — | calculated binding capacity (100-% n, DMSO apparent binding subtracted) (PKC-ζ; PRE 50 μM, purified PKC-ζ): 1.83%; calculated binding capacity (100-% n, DMSO apparent binding subtracted) (PKC-ζ; PRE 200 μM, purified PKC-ζ): 1.54% |
| Ac-KDANQLIGISI-NH2 [PRE 6] | — | L |  |
| Ac-KDAQNLI-NH2 [PRE 12] | — | L | calculated binding capacity (100-% n, DMSO apparent binding subtracted) (PKC-ζ; PRE 50 μM, purified PKC-ζ): 4.20%; calculated binding capacity (100-% n, DMSO apparent binding subtracted) (PKC-ζ; PRE 100 μM, purified PKC-ζ): 8.77%; calculated binding capacity (100-% n, DMSO apparent binding subtracted) (PKC-ζ; PRE 200 μM, purified PKC-ζ): 0.33% |
| Ac-RDAQNLI-NH2 [PRE 13] | — | L | calculated binding capacity (100-% n, DMSO apparent binding subtracted) (PKC-ζ; PRE 200 μM, purified PKC-ζ): 4.29% |
| Ac-RDAQNLIGISI-NH2 [PRE 11] | — | H |  |
| Ac-isigilqnadk-NH2 (Ac-[dI][dS][dI]G[dI][dL][dQ][dN][dA][dD][dK]-NH2; SMILES CC[C@@H](C)[C@@H](NC(C)=O)C(=O)N[C@H](CO)C(=O)N[C@@H](C(=O)NCC(=O)N[C@@H](C(=O)N[C@H](CC(C)C)C(=O)N[C@H](CCC(N)=O)C(=O)N[C@H](CC(N)=O)C(=O)N[C@H](C)C(=O)N[C@H](CC(=O)O)C(=O)N[C@H](CCCCN)C(N)=O)[C@H](C)CC)[C@H](C)CC) [PRE 9] | — | L | calculated binding capacity (100-% n, DMSO apparent binding subtracted) (PKC-δ; PRE 50 μM, purified PKC-δ (may be overestimated)): 16.23%; calculated binding capacity (100-% n, DMSO apparent binding subtracted) (PKC-δ; PRE 100 μM, purified PKC-δ (may be overestimated)): 19.27%; calculated binding capacity (100-% n, DMSO apparent binding subtracted) (PKC-δ; PRE 200 μM, purified PKC-δ (may be overestimated)): 9.95% |
| ILEDKGGDAQNLIGISI [PRE 8] | — | — |  |
| RRKKGGKDFVVKR [PRE 1] | — | H | calculated binding capacity (100-% n, DMSO apparent binding subtracted) (PKC-ζ; PRE 50 μM, purified PKC-ζ): 4.11% |
